The target in test [1] is T1, human GUCY2C (guanylyl cyclase C) (human, UniProt P25092 24-1073). Description: cell-based or functional assay.
For test [2], the target named is T1, human GUCY2C (guanylyl cyclase C). Description: flow cytometry on T84 cells. On the procedure: One hour cell binding studies by flow cytometry were carried out at physiologically relevant temperature (37° C.) on GUCY2CxCD3 bispecific antibodies (GUCY2CxCD3 biAb-1 and GUCY2CxCD3_biAb-2), known reference GUCY2CxCD3 bispecific antibody (biAb), and Null×CD3 control molecules. The goal was to characterize and quantify specific, cell binding for GUCY2CxCD3_biAb-1 and 2. […] Maximum binding of GUCY2CxCD3 biAb-1 and 2 was higher than reference biAb.
(Flow cytometry measures light scatter and fluorescence of single cells or particles in a stream.)

The target in test [3] is T2, human CD3 (human, UniProt P07766 23-207).
T2 construct: also called CD3 epsilon; CD3 on primary human T cells
In words: flow cytometry on primary T cells.

The target in the next test is T3, cynomolgus monkey CD3 (cynomolgus monkey, UniProt Q95LI5 22-198).
T3 construct: whole, on cells; also called cynomolgus CD3
In words: not described at this place; the sentence refers to 'example 2'.

For test [4], the target named is T2, human CD3. In words: flow cytometry based Intellicyt assay on human pan T cells, MFI, 4PL fit; lower end of the printed range 108-112 nM. The procedure:
The affinity of CD3_spFv-1 to T cells was measured by flow cytometry based Intellicyt assay. Briefly, pan T cells were isolated from PBMC from healthy donors. Cells were incubated with titrating amounts test molecules for 1 hour, then washed. […] Cells were then washed and resuspended in 0.10% pluronic acid containing Sytox Green, then immediately analyzed in a flow cytometer. Median fluorescent intensity (MFI) was recorded (on RL1-A). The log 10 of the molecule concentration was plotted against the MFI. Best fit curves were evaluated using a 4PL algorithm (log(agonist) vs. response—Variable slope) in GraphPad Prism 9.0.

For test [5], the target named is T1, human GUCY2C (guanylyl cyclase C). Description: flow cytometry on CHO-huGUCY2C cells. On the procedure: Three (3) cell lines, Chinese hamster ovary (CHO) cell line, CHO transfected with cyno GUCY2C, and CHO transfected with human GUCY2C, were incubated with a titrating dose of GUCY2C_mAb for 60 min at 37° C., washed twice, then incubated with AF647 labeled anti human secondary for 30 minutes at 4° C. Cells were washed twice again, resuspended and acquired in a flow cytometer. Specific antibody binding was assessed in the RL1H channel for each cell line. Data presented as signal/background where background is secondary only.

T1 sequence (P25092 other isoform, or with tags, fused parts or gaps limits assumed): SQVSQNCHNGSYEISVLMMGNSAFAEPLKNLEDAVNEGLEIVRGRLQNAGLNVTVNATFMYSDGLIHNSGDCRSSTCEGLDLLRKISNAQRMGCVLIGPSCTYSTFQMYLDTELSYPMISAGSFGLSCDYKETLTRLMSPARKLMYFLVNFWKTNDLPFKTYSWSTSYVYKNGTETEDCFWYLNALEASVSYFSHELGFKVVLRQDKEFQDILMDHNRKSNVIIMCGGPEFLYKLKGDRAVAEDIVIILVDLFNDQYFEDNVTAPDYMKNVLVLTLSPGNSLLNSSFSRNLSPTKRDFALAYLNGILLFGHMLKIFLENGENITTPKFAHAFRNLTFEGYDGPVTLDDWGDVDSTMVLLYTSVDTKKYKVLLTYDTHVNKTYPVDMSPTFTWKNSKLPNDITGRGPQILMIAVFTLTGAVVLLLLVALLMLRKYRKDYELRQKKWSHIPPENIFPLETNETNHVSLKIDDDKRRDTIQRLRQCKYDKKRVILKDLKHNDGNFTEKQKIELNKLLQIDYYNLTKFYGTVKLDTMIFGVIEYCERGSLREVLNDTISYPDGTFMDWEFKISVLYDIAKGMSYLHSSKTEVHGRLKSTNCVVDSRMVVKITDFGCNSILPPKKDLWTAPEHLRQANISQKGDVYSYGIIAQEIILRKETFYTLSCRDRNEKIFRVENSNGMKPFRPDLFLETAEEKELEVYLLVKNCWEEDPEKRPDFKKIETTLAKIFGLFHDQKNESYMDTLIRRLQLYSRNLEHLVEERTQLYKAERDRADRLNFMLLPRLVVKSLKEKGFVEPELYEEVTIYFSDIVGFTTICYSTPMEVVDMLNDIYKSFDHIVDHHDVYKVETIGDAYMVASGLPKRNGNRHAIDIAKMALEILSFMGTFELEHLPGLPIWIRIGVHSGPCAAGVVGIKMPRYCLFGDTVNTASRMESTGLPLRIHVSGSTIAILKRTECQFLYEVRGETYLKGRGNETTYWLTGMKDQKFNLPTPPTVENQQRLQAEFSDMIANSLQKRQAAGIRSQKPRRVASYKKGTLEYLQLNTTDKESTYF
T2 sequence (P07766 23-207 limits assumed): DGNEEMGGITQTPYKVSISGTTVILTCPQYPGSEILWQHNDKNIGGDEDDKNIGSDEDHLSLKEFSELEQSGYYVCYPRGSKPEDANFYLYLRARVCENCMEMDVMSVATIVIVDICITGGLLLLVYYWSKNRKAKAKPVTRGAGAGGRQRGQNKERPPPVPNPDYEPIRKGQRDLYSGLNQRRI
T3 sequence (Q95LI5 22-198): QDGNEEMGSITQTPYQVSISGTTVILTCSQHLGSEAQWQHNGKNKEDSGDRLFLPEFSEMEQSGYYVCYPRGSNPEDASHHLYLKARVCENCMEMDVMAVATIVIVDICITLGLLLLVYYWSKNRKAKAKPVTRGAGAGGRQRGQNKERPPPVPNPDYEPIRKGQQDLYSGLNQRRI

B1: GUCY2CxCD3_biAb-1 (bispecific antibody, human IgG1, kappa, L234A L235A)
heavy: QVQLQESGPGLVKPSETLSLTCTVSGASISHYYWSWIRRPAGKGLEWIGRIYTSGSTNYNPSLKSRVTVSVDTSKNQFSLKLSSVTAADTAVYYCARDRYTGYFDLWGRGTLVTVSSASTKGPSVFPLAPSSKSTSGGTAALGCLVKDYFPEPVTVSWNSGALTSGVHTFPAVLQSSGLYSLSSVVTVPSSSLGTQTYICNVNHKPSNTKVDKKVEPKSCDKTHTCPPCPAPEAAGGPSVFLFPPKPKDTLMISRTPEVTCVVVSVSHEDPEVKFNWYVDGVEVHNAKTKPREEQYNSTYRVVSVLTVLHQDWLNGKEYKCKVSNKALPAPIEKTISKAKGQPREPQVYTLPPSREEMTKNQVSLSCAVKGFYPSDIAVEWESNGQPENNYKTTPPVLDSDGSFFLVSKLTVDKSRWQQGNVFSCSVMHEALHNRFTQKSLSLSPGK
light: not shown
chain: EIVLTQSPATLSASPGERVTLSCSASSSVSYMNWYQQKPGCAPRRWIYDSSKLASGVPARFSGSGSGRDYTLTISSLEPEDFAVYYCQQWSRNPPTFGGGTKVEIKGGGSGGSGGCPPCGGSGGQVQLVQSGAEVKKPGSSVKVSCKASGYTFTRSTMHWVKQAPGQGLEWIGYINPSSAYTNYNQKFQGRVTLTADKSTSTAYMELSSLRSEDTAVYYCASPQVHYDYAGFPYWGCGTLVTVSSEPKSSDKTHTCPPCPAPEAAGGPSVFLFPPKPKDTLMISRTPEVTCVVVSVSHEDPEVKFNWYVDGVEVHNAKTKPREEQYNSTYRVVSVLTVLHQDWLNGKEYKCKVSNKALPAPIEKTISKAKGQPREPQVYTLPPSREEMTKNQVSLWCLVKGFYPSDIAVEWESNGQPENNYKTTPPVLDSDGSFFLYSKLTVDKSRWQQGNVFSCSVMHEALHNHYTQKSLSLSPGK
notes: HC1/LC1 form the GUCY2C Fab arm (IgG1, L234A/L235A/D265S, hole T366S/L368A/Y407V); HC2 is CD3_spFv-1 (VL2-linker-VH2) fused to IgG1 Fc (L234A/L235A/D265S, knob T366W); also called GUCY2CxCD3 bisp-Ab1; GUCY2C-CD3-bisp-Abl
For the molecule B1, in test [1], the “Tumor killing EC50 (nM), HT-55” value amounted to 0.8 nM and the “Tumor killing EC50 (nM), LS1034” value stood at 0.04 nM. The molecule also gave an EC50 in test [2] of 12 nM. Also, the response in the test with human CD3 [3] was half-maximal at 108 nM (EC50).

B2: CD3_spFv-1 (scFv)
scFv: EIVLTQSPATLSASPGERVTLSCSASSSVSYMNWYQQKPGCAPRRWIYDSSKLASGVPARFSGSGSGRDYTLTISSLEPEDFAVYYCQQWSRNPPTFGGGTKVEIKGGGSGGSGGCPPCGGSGGQVQLVQSGAEVKKPGSSVKVSCKASGYTFTRSTMHWVKQAPGQGLEWIGYINPSSAYTNYNQKFQGRVTLTADKSTSTAYMELSSLRSEDTAVYYCASPQVHYDYAGFPYWGCGTLVTVSS
notes: also called CD3 arm of GUCY2CxCD3_biAb-1; anti-CD3 spFv
Regarding B2, the binding result with cynomolgus monkey CD3 is “no binding”. In addition, the EC50 with human CD3 [4] lay in the range of 108 to 112 nM.

B3: GUCY2C_mAb (antibody, V domains shown)
VH: QVQLQESGPGLVKPSETLSLTCTVSGASISHYYWSWIRRPAGKGLEWIGRIYTSGSTNYNPSLKSRVTVSVDTSKNQFSLKLSSVTAADTAVYYCARDRYTGYFDLWGRGTLVTVSS
VL: not shown
notes: From Ablexis Kappa mice, so a kappa light chain; also called GUCYC2_mAb
Take B3: the EC50 in test [5] amounted to 4.6 nM.

As a reminder, the EC50 is the concentration needed to bring the measured effect to its halfway point.

Source of the values: patent US20250066510A1 (Janssen / Centocor, published 2025).
